The record followed here is patent US20110251266, “APTAMER FOR NGF AND USE THEREOF” (Shionogi & Co., Ltd., published 2011).

B1: SEQ62 aptamer (ssRNA)
RNA: GGGAGAACUUCGACCAGAAGUUUGAAAGAAACCCAAAUUAAAGUGAACAGUAUGUGCGCAUACAUGGAUCCUCA
modifications: 2'-F pyrimidines
B2: SEQ86 aptamer (ssRNA)
RNA: GGGAGAACUUCGACCAGAAGGAGUAGCCAGUGAACCUGGAAUAUGAAAAAAACCUUAUGUGCGCAUACAUGGAUCCUC
modifications: 2'-F all pyrimidines
B3: SEQ83 aptamer (ssRNA)
RNA: GGGAGAACUUCGACCAGAAGUUGAAGCUUGAAAAAAACCCAGGAUUAAACAGACAGUAUGUGCGCAUACAUGGAUCCUC
modifications: 2'-F all pyrimidines
B4: SEQ39 aptamer (ssRNA)
RNA: GGGAGAACUUCGACCAGAAGUGUGAAAAGAACCCAAAUAAAACAACAAUGUAUGUGCGCAUACAUGGAUCCUCA
modifications: 2'-F all pyrimidines
B5: SEQ58 aptamer (ssRNA)
RNA: GGGAGAACUUCGACCAGAAGUUUGAAAAGAACCCAAAUACAGAAUAAAUGUAUGUGCGCAUACAUGGAUCCUCA
modifications: 2'-F all pyrimidines
B6: SEQ75 aptamer (ssRNA)
RNA: GGGAGAACUUCGACCAGAAGUGAAAGAAUCUCCAAAGACAAGAUAAAAACAACCGUAUGUGCGCAUACAUGGAUCCUC
modifications: 2'-F all pyrimidines
B7: SEQ69 mosaic aptamer (mixed)
DNA: GGGAGAGGCAAGAATAGGGCCCAGCTGAAAAAAACCTGGACGTACACCGTTCGCCGAGCGGGTGAAGAGAAGAGACATTAGGA
modifications: purines ribo, pyrimidines (C,T) deoxy
B8: SEQ81 aptamer (ssRNA)
RNA: GGGAGAACUUCGACCAGAAGGAGAUGACUGUGUAACCACAGUAUGAAAUAAACUCUAUGUGCGCAUACAUGGAUCCUC
modifications: 2'-F all pyrimidines
B9: SEQ51 aptamer (ssRNA)
RNA: GGGAGAACUUCGACCAGAAGUUUGAAAGAAACCCAAAAAAACAACAUAUGAACUAUGUGCGCAUACAUGGAUCCUCA
modifications: 2'-F all pyrimidines
B10: SEQ71 mosaic aptamer (mixed)
DNA: GGGAGAGGCAAGAATAGGGCACTTGAAAAAAACCCAAATTTACCGTCTTCAGCGTCGGGTGTGAAGAGAAGAGACATTAGGA
modifications: purines ribo, pyrimidines (C,T) deoxy
B11: SEQ79 aptamer (ssRNA)
RNA: GGGAGAACUUCGACCAGAAGGAUAGCCAUGUGGAGGUGAAGACUGAAAUAAACCAUAUGUGCGCAUACAUGGAUCCUC
modifications: 2'-F all pyrimidines
B12: SEQ38 aptamer (ssRNA)
RNA: GGGAGAACUUCGACCAGAAGAGAAUGAAACUCCACAAAGUACAUAAAACAUAUGUGCGCAUACAUGGAUCCUCA
modifications: 2'-F all pyrimidines
B13: SEQ80 aptamer (ssRNA)
RNA: GGGAGAACUUCGACCAGAAGUGAAAACAACCUCCCAAUAAUGAUCACAGAAAUCCUAUGUGCGCAUACAUGGAUCCUC
modifications: 2'-F all pyrimidines
B14: SEQ67 aptamer (ssRNA)
RNA: GGGAGAACUUCGACCAGAAGUCGAUAACGAACAAAACUCCCAAAGGAAUAUAUGUGCGCAUACAUGGAUCCUCA
modifications: 2'-F all pyrimidines
B15: SEQ49 aptamer (ssRNA)
RNA: GGGAGAACUUCGACCAGAAGUGAAAGAAACUCCCAAGACGGUAACGAAAGUAUGUGCGCAUACAUGGAUCCUCA
modifications: 2'-F all pyrimidines
B16: SEQ76 aptamer (ssRNA)
RNA: GGGAGAACUUCGACCAGAAGGAUAAACGCAUGUAUUUGCAGUAUUAAAAAUGCCUUAUGUGCGCAUACAUGGAUCCUC
modifications: 2'-F all pyrimidines
B17: SEQ57 aptamer (ssRNA)
RNA: GGGAGAACUUCGACCAGAAGUUUGAAAAAAACCCAAACACCGAAGCACAAAUAUGUGCGCAUACAUGGAUCCUCA
modifications: 2'-F all pyrimidines
B18: SEQ72 mosaic aptamer (mixed)
DNA: GGGAGAGGCAAGAATAGGGCTGGATGGGCAGTAACCTGAAAAAAACCACCCACCTCTACCGTGAAGAGAAGAGACATTAGGA
modifications: purines ribo, pyrimidines (C,T) deoxy
B19: SEQ73 mosaic aptamer (mixed)
DNA: GGGAGAGGCAAGAATAGGGCACTTGAAAAAAACCCAAAGAAAGAATACTTACCCGGCGCGTGAAGAGAAGAGACATTAGGA
modifications: purines ribo, pyrimidines (C,T) deoxy
B20: SEQ52 aptamer (ssRNA)
RNA: GGGAGAACUUCGACCAGAAGUUUGAAAGAAACCCAAAUAUACAAAACACUAUGUGCGCAUACAUGGAUCCUCA
modifications: 2'-F all pyrimidines
B21: SEQ40 aptamer (ssRNA)
RNA: GGGAGAACUUCGACCAGAAGUUUGAAAAAAACCCAGGAAAAUGGAAGACGUAUGUGCGCAUACAUGGAUCCUCA
modifications: 2'-F all pyrimidines
B22: SEQ64 aptamer (ssRNA)
RNA: GGGAGAACUUCGACCAGAAGUUUGAAAGAAACCCAAAACAUUAGCACACAUAUGUGCGCAUACAUGGAUCCUCA
modifications: 2'-F all pyrimidines
B23: SEQ42 aptamer (ssRNA)
RNA: GGGAGAACUUCGACCAGAAGUUUGAAAAAAACCCAAAAGAGCAGCAGAGAUAUGUGCGCAUACAUGGAUCCUCA
modifications: 2'-F all pyrimidines
B24: SEQ85 aptamer (ssRNA)
RNA: GGGAGAACUUCGACCAGAAGCGGAAGCCUGCGUAACCGCAGGAUGAAAACAACCGUAUGUGCGCAUACAUGGAUCCUC
modifications: 2'-F all pyrimidines
B25: SEQ74 mosaic aptamer (mixed)
DNA: GGGAGAGGCAAGAATAGGGCATAGTGTAGACCCCTCTCAAGATACCCCATGAATTGCCCCGTGAAGAGAAGAGACATTAGGA
modifications: purines ribo, pyrimidines (C,T) deoxy
B26: SEQ78 aptamer (ssRNA)
RNA: GGGAGAACUUCGACCAGAAGUGUGUAUUGUUCAGGGUGUGCCCAGCCUAUAACCAUAUGUGCGCAUACAUGGAUCCUC
modifications: 2'-F all pyrimidines
B27: SEQ54 aptamer (ssRNA)
RNA: GGGAGAACUUCGACCAGAAGUCGAAAGUGAAAGAAACUCCAACGAAAGCAUAUGUGCGCAUACAUGGAUCCUCA
modifications: 2'-F all pyrimidines
B28: SEQ68 aptamer (ssRNA)
RNA: GGGAGAACUUCGACCAGAAGUCGAGAGCGAAAGAAACUCCCAAAACACAGUAUGUGCGCAUACAUGGAUCCUCA
modifications: 2'-F all pyrimidines
B29: SEQ82 aptamer (ssRNA)
RNA: GGGAGAACUUCGACCAGAAGAGGAUGCUUGUUUGGUUACAAGCUGAAAGAAACCUUAUGUGCGCAUACAUGGAUCCUC
modifications: 2'-F all pyrimidines
B30: SEQ70 mosaic aptamer (mixed)
DNA: GGGAGAGGCAAGAATAGGGCTGGAAATAGAACCGCGCTGTCTTCATTAAGCCGCCCAACGGTGAAGAGAAGAGACATTAGGA
modifications: purines ribo, pyrimidines (C,T) deoxy
B31: SEQ77 aptamer (ssRNA)
RNA: GGGAGAACUUCGACCAGAAGUGAAAAAAUCUCCAGUUGCAAGACGAAACAAACCUUAUGUGCGCAUACAUGGAUCCUC
modifications: 2'-F all pyrimidines
B32: SEQ41 aptamer (ssRNA)
RNA: GGGAGAACUUCGACCAGAAGUUUGAAAGGAACCCAAAGCGAAACAAAACGUAUGUGCGCAUACAUGGAUCCUCA
modifications: 2'-F all pyrimidines
B33: SEQ37 aptamer (ssRNA)
RNA: GGGAGAACUUCGACCAGAAGUUUGAAAGAAACCCAAAGGUGAAACAACAAUAUGUGCGCAUACAUGGAUCCUCA
modifications: 2'-F all pyrimidines
B34: SEQ62 aptamer (ssRNA)
RNA: GGGAGAACUUCGACCAGAAGUUUGAAAGAAACCCAAAUUAAAGUGAACAGUAUGUGCGCAUACAUGGAUCCUCA
modifications: 2'-F all pyrimidines

Bounds are passed on as bounds.

One may read the IC50 as the point on the concentration scale where inhibition reaches its midpoint. The low end stands for greater potency in that assay, the high end for weaker potency in that assay.

The target of the first series is T1, beta-NGF (nerve growth factor) (Homo sapiens, UniProt P01138 P01138:122-241). Briefly: cell_activity; Neuroscreen-1 neurite outgrowth. The settings on record: tags: R&D Systems human NGF; chain copies: 2. The procedure: The neurite outgrowth inhibitory activity of aptamer was evaluated by using Neuroscreen-1 cell, which is a subclone of PC-12 cells. 2500 Cells per well were cultured for one day in an RPMI-1640 medium containing 2.5% horse serum and 1.25% fetal bovine serum in a 96 well flat-bottom plate coated with collagen type IV. A mixed solution of NGF (final concentration 15 ng/ml or 1.1 nM) prereacted in a serum-free RPMI-1640 medium at room temperature or 37° C. for 30 min to 1 hr and an aptamer (final concentration 500-3 nM) was added. Two or three days later, the cytoplasm and nuclei were stained using Cellomics Neurite Outgrowth Kits (manufactured by Thermo Scientific), and neurite length per cell was measured by Cellomics ArrayScan VTI (manufactured by Thermo Scientific). With the neurite length per cell obtained by culturing the cell for 2 days with the addition of NGF alone as inhibitory activity 0%, and that of the cell obtained by NGF free culture as inhibitory activity 100%, the inhibitory activity of the aptamer was calculated from the neurite length per cell obtained by culturing with the addition of NGF and the aptamer in mixture. […] When the inhibitory activity was 0% or below, ‘0%’ is indicated. When it was not less than 100%, ‘100%’ is indicated. The 50% inhibitory concentration was determined from the concentrations at two, above and below points sandwiching the 50% inhibitory activity.
T1 sequence (P01138 122-241, one chain of several): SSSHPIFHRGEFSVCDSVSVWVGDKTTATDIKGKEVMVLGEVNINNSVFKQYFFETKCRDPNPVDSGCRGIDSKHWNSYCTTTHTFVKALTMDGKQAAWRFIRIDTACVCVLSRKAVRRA
For the molecule B1, the IC50 is 2 nM.

Another series deals with T1, beta-NGF (nerve growth factor). Put plainly: SPR; blocks NGF-TrkA and NGF-P75. The settings on record: tags: R&D Systems; chain copies: 2. Here is the method: As directed in BIAcore Company's protocol, Protein A (21181, PIERCE) was immobilized on a CM5 sensor chip. About 1100 RU of human Trk A-Fc fused with the Fc portion of IgG (175-TK, R&D systems) was immobilized thereon. As the analyte, a mixture of NGF (0.1 μM) and each aptamer (0.33 μM) was injected after being allowed to stand for 30 minutes. […] When NGF binds stronger to a receptor than an aptamer, the aptamer may be removed and NGF may bind to the receptor. […] Using the binding amount of NGF and NGF receptor without an aptamer as 100, the binding amount of NGF and NGF receptor added with an aptamer was determined as a correction value. Here, the binding amount is the RU value at the peak top of the sensorgram of BIAcore (RU value immediately after completion of NGF injection). […] A similar experiment was performed for another receptor P75 (p75-Fc; R&D systems).
For orientation: In SPR one partner is held on a chip, and binding of the other changes the refractive index at the surface.
For B2, the activity was at least 60 % inhibition. On the same count and under the same terms, then B3, with at least 60 % inhibition; and B4, with at least 60 % inhibition; and B5, with at least 60 % inhibition. Turning to B6, the activity is at least 60 % inhibition. Molecule B7 had an activity of at least 60 % inhibition. In turn, B8 returned an activity of at least 60 % inhibition. Regarding B9, the activity is at least 60 % inhibition. The same measure, in the same setting: the value for B10 was at least 60 % inhibition; that for B11 was at least 60 % inhibition. Same read-out and setting: the value for B12 was at least 60 % inhibition.

With B13, the activity was at least 60 % inhibition. As for B14, the activity was at least 60 % inhibition. Same read-out and setting: the value for B15 was at least 60 % inhibition.

In turn, B16 displayed an activity of at least 60 % inhibition. For the molecule B17, the activity was at least 60 % inhibition. On to GGGAAGCCUGUGGAGCUGCAGGAUGAAAAAAACCCAAA (ssRNA, 2'-F all pyrimidines) [SEQ35 aptamer], for which the activity was at least 60 % inhibition. Molecule B18 had an activity of at least 60 % inhibition.

As for B19, the activity was at least 60 % inhibition.

As to B20, the activity was at least 60 % inhibition. As to B21, the activity was at least 60 % inhibition.

Molecule B22 displayed an activity of at least 60 % inhibition. The same measure, in the same setting: the value for B23 was at least 60 % inhibition. The same measure, in the same setting: then B24, with at least 60 % inhibition; and B25, with at least 60 % inhibition. On the same count and under the same terms, then B26, with at least 60 % inhibition; and B27, with at least 60 % inhibition; and B28, with at least 60 % inhibition. With B29, the activity was at least 60 % inhibition. In turn, B30 had an activity of at least 60 % inhibition. The same measure, in the same setting: then B31, with at least 60 % inhibition; and B32, with at least 60 % inhibition; and B33, with at least 60 % inhibition.

Turning to B34, the activity was at least 60 % inhibition.
